Patent US20210395761

Assays:
[1] = system: T1, SF370.1 serine recombinase (SF370.1-HA-NLS) (Streptococcus pyogenes phage 370.1); assay: cell_activity; settings: lettuce; 1 colony without recombinase
T1 sequence: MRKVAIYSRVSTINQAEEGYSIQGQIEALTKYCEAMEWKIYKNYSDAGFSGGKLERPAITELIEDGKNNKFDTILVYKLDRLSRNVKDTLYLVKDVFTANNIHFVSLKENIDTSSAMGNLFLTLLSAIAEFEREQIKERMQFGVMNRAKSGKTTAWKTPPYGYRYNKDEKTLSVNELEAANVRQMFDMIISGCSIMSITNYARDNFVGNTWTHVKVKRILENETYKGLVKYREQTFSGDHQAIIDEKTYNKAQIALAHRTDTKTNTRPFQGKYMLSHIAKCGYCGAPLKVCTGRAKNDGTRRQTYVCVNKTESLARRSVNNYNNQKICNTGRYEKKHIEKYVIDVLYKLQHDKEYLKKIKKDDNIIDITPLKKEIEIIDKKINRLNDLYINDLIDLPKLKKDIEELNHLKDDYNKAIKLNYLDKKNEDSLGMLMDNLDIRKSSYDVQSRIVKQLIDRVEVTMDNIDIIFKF

[2] = molecular target: SPβc2 serine recombinase (SPβc2-HA-NLS) (Bacillus subtilis phage SPβc2) (UniProt O32006); assay: cell_activity; settings: lettuce initial screen; attP gave 27; background level
Sequence of SPβc2 serine recombinase (SPβc2-HA-NLS) (Bacillus subtilis phage SPβc2) (O32006 whole entry): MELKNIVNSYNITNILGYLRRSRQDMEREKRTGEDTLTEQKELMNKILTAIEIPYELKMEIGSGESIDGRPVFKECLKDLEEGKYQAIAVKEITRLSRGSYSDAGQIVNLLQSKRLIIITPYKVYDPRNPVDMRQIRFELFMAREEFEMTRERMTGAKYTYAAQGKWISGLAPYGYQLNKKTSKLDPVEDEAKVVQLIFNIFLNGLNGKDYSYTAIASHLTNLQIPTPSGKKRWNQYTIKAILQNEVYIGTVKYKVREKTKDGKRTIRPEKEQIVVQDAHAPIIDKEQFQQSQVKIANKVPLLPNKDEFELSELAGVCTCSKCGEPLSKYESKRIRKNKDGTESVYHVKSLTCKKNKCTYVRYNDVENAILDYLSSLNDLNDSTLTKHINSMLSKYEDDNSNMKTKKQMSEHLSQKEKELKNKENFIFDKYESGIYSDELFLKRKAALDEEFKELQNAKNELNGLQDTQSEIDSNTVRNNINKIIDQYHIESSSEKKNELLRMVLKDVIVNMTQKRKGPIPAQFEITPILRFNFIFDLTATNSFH

| Substance | activity (GFP+ Kan resistant colonies) [1] | activity [2] [GFP+ colony] |
| --- | --- | --- |
| ATTTTTGTATCCAGTTCAATGGATATTTGATATAATCGTCTTAAAAAGGAGGTCGTGAAATGGATAAAAAAATACAGCGTTTTTCATGTACAACTATACTAGTTGTAGTGCCTAAATAATGCTTTTAAAACTTAAAAATAATATCGATGTTATCCATAGTAACCTCGACTCTATCTATCAATTGCTTAACTATCCTAGAT (double strand) [SF370 attP] | 4 | – |
| siteless reporter plasmid | – | 1 |
